Measurements published in IntAct's records for PubMed 23415225.

B1: AP-1 complex subunit gamma-1 (Mus musculus), P22892 (parent)
chain: MPAPIRLRELIRTIRTARTQAEEREMIQKECAAIRSSFREEDNTYRCRNVAKLLYMHMLGYPAHFGQLECLKLIASQKFTDKRIGYLGAMLLLDERQDVHLLMTNCIKNDLNHSTQFVQGLALCTLGCMGSSEMCRDLAGEVEKLLKTSNSYLRKKAALCAVHVIRKVPELMEMFLPATKNLLNEKNHGVLHTSVVLLTEMCERSPDMLAHFRKLVPQLVRILKNLIMSGYSPEHDVSGISDPFLQVRILRLLRILGRNDDDSSEAMNDILAQVATNTETSKNVGNAILYETVLTIMDIKSESGLRVLAINILGRFLLNNDKNIRYVALTSLLKTVQTDHNAVQRHRSTIVDCLKDLDVSIKRRAMELSFALVNGNNIRGMMKELLYFLDSCEPEFKADCASGIFLAAEKYAPSKRWHIDTIMRVLTTAGSYVRDDAVPNLIQLITNSVEMHAYTVQRLYKAILGDYSQQPLVQVAAWCIGEYGDLLVSGQCEEEEPIQVTEDEVLDILESVLISNMSTSVTRGYALTAIMKLSTRFTCTVNRIKKVVSIYGSSIDVELQQRAVEYNALFKKYDHMRSALLERMPVMEKVTTNGPSEIVQTNGETEPAPLETKPPPSGPQPTSQANDLLDLLGGNDITPVIPTAPTSKPASAGGELLDLLGDITLTGAPAAAPTPASVPQISQPPFLLDGLSSQPLFNDIAPGIPSITAYSKNGLKIEFTFERSNTNPSVTVITIQASNSTELDMTDFVFQAAVPKTFQLQLLSPSSSVVPAFNTGTITQVIKVLNPQKQQLRMRIKLTYNHKGSAMQDLAEVNNFPPQSWQ
partner: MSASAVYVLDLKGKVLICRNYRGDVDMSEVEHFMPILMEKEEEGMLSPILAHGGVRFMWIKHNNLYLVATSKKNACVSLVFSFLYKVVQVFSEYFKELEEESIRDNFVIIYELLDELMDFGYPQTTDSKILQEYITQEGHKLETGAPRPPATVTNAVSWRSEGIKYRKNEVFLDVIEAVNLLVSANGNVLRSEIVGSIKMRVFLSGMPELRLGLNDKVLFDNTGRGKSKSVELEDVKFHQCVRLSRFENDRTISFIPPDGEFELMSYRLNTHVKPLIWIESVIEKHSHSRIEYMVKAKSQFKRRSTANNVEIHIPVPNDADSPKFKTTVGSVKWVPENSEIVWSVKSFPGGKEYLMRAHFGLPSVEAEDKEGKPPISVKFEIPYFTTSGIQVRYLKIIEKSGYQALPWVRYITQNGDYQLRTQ
B2: AP-1 complex subunit beta-1 (Homo sapiens), Q10567 (parent)
chain: MTDSKYFTTTKKGEIFELKAELNSDKKEKKKEAVKKVIASMTVGKDVSALFPDVVNCMQTDNLELKKLVYLYLMNYAKSQPDMAIMAVNTFVKDCEDPNPLIRALAVRTMGCIRVDKITEYLCEPLRKCLKDEDPYVRKTAAVCVAKLHDINAQLVEDQGFLDTLKDLISDSNPMVVANAVAALSEIAESHPSSNLLDLNPQSINKLLTALNECTEWGQIFILDCLANYMPKDDREAQSICERVTPRLSHANSAVVLSAVKVLMKFMEMLSKDLDYYGTLLKKLAPPLVTLLSAEPELQYVALRNINLIVQKRPEILKHEMKVFFVKYNDPIYVKLEKLDIMIRLASQANIAQVLAELKEYATEVDVDFVRKAVRAIGRCAIKVEQSAERCVSTLLDLIQTKVNYVVQEAIVVIKDIFRKYPNKYESVIATLCENLDSLDEPEARAAMIWIVGEYAERIDNADELLESFLEGFHDESTQVQLQLLTAIVKLFLKKPTETQELVQQVLSLATQDSDNPDLRDRGYIYWRLLSTDPVAAKEVVLAEKPLISEETDLIEPTLLDELICYIGTLASVYHKPPSAFVEGGRGVVHKSLPPRTASSESAESPETAPTGAPPGEQPDVIPAQGDLLGDLLNLDLGPPVSGPPLATSSVQMGAVDLLGGGLDSLMGDEPEGIGGTNFVAPPTAAVPANLGAPIGSGLSDLFDLTSGVGTLSGSYVAPKAVWLPAMKAKGLEISGTFTRQVGSISMDLQLTNKALQVMTDFAIQFNRNSFGLAPAAPLQVHAPLSPNQTVEISLPLSTVGSVMKMEPLNNLQVAVKNNIDVFYFSTLYPLHILFVEDGKMDRQMFLATWKDIPNENEAQFQIRDCPLNAEAASSKLQSSNIFTVAKRNVEGQDMLYQSLKLTNGIWVLAELRIQPGNPSCTDLELSLKCRAPEVSQHVYQAYETILKN

Variants of: B1
Settings: with ap1m1_mouse Ap1m1, P35585

Which “effect of a mutation on the interaction” value does the source give for L68D;L71E;L102E here?
Its value is “disrupting interaction strength”.

Variants of: B2
Settings: with ap1g1_human AP1G1, O43747

I85D;V88D was tested. Which “effect of a mutation on the interaction” value did it give?
Its value is “disrupting interaction strength”.
